Experimental data as given in patent US20150259408A1 (PROTHENA BIOSCIENCES, published 2015).
Where a chain is given by its changes, count along the chain named.

B1: mouse monoclonal antibody 6C12 (antibody, V domains shown)
VH: QVQLQQPGAELVKPGASVKLSCKASGYTFTTYWMHWVKQRPGQGPEWIGMIHPYSGAINYNEKFKSKATLTVDKSSSTAYMQLSSLTSEDSAVYYCVKQLRLLYYFDYWGQGTTLTVSS
VL: DIVMTQSPSSLTVTAGEKVTMSCKSRQSLLNSGNQKNYLTWYQQKPGQPPKVLIYWASTRESGVPDRFTGSGSGTDFTLTISSVQAEDLAVYYCQNDYSYPLTFGAGTKLELKR
B2: mouse monoclonal antibody 15F7 (antibody, V domains shown)
VH: QVQLQQSGTELARPGAAVKLSCKASGYTFTSYGLSWVKQRAGQGLEWIGEIFPRSGNTYYNEKFKGKATLTADKSSSTAYMELRSLTSEDSAVYFCARGVRSPGAMDYWGQGTSVTVSS
VL: DIQMTQSSSSFSVSLGDRVTITCKASEDIYNRLAWYQQKPGNAPRLLISGATSLETGVPSRFSGSGSGKDYTLSITSLQTEDVATYYCQQYWSIPYTFGGGTNLEIKR
notes: Mouse hybridoma antibody; Mouse IgG1 is used as its control; also called m15F7; LG4-5-specific antibody 15F7
B3: mouse monoclonal antibody 13G10 (antibody, V domains shown)
VH: QVQLQQSGAELARPGASVKLSCKASGYTFTNYGISWVKQRTGQGLEWIGAIYPRSGNTYYNEKFKGKATLTADKSSSTAYMELRSLTSEDSAVYFCARERDYGSSYALDYWGQGTSVTVSS
VL: B2 VL with S63T, I94P, Y96R, N103K

Experiments:
[1] = biological target: T1, recombinant mouse His-laminin-α4 (R&D Systems) (mouse, UniProt P97927 826-1816, limits assumed); test: SPR (Biacore T200); Fab or captured-IgG format not given
T1 construct: range 826-end (only the start, Q826, is stated); Bought protein; also called Murine LAMA4; not shown: 6x His tag
T1 sequence (looked up): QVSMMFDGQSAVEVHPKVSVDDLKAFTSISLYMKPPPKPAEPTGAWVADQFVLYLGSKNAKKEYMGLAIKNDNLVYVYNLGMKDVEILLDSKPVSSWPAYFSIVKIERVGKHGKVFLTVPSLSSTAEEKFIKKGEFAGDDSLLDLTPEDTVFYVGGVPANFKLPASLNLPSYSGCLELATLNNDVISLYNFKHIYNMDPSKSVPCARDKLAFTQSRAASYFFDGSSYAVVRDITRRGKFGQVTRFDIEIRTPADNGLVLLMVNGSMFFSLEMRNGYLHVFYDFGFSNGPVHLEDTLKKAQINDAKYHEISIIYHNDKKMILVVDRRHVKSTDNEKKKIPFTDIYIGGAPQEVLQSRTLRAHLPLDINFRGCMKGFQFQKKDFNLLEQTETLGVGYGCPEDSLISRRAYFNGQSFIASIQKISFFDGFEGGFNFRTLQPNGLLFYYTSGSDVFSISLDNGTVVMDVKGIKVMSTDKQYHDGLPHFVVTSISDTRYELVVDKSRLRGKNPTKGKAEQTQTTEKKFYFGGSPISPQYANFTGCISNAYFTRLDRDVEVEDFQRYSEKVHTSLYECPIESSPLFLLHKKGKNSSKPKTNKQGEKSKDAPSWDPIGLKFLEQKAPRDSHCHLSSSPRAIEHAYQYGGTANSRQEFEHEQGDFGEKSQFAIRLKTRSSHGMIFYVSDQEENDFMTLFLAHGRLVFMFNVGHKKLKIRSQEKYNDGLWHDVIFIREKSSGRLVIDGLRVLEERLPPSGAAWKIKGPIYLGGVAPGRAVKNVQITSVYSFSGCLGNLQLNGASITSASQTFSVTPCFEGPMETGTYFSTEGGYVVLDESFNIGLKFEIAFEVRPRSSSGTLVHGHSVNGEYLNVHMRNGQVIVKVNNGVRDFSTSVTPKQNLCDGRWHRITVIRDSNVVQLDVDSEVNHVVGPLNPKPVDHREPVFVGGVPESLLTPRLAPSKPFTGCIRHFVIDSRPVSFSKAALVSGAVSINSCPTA

[2] = biological target: T2, recombinant human His-laminin-α4 (R&D Systems) (human, UniProt Q16363-2 826-1816, limits assumed); test: as above
T2 construct: range 826-end (only the start, Q826, is stated); Bought protein; also called Human LAMA4; human His-laminin-α4 fragment starting at Q826; not shown: 6x His tag
T2 sequence (looked up): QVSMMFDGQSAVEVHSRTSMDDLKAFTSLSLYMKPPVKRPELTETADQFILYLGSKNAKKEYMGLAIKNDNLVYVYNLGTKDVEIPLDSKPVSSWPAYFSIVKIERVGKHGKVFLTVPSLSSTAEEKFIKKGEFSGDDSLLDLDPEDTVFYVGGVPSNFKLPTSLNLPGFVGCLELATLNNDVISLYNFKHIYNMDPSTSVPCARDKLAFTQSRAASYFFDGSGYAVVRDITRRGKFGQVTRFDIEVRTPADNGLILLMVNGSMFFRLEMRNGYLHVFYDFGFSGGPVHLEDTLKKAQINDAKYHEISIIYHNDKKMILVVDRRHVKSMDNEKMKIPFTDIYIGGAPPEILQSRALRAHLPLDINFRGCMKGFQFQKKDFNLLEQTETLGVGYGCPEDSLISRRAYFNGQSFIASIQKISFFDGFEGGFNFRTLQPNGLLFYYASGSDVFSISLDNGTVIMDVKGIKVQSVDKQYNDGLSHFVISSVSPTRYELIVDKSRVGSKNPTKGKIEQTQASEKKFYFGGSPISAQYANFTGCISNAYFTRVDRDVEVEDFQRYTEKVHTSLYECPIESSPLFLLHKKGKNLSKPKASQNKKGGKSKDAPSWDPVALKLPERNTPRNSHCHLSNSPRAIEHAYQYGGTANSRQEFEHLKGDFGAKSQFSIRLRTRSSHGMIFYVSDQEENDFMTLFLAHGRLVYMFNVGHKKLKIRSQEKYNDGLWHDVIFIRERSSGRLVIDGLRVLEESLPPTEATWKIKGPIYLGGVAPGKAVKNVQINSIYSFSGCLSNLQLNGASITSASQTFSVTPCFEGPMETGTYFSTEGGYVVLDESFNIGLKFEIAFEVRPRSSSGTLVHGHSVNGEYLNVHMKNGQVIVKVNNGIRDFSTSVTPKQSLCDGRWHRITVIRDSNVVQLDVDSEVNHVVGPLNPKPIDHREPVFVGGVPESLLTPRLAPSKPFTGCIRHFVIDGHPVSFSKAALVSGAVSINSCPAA

[3] = biological target: recombinant LG4-5 of LAMA4 coated on ELISA plates; test: cell-based or functional assay
[4] = biological target: T3, human LAMA4 LG1-3 fragment displayed on 293 cells (pDisplay) (human, UniProt Q16363 830-1430, limits assumed); test: flow cytometry on 293 cells displaying LAMA4 fragments (pDisplay)
T3 sequence: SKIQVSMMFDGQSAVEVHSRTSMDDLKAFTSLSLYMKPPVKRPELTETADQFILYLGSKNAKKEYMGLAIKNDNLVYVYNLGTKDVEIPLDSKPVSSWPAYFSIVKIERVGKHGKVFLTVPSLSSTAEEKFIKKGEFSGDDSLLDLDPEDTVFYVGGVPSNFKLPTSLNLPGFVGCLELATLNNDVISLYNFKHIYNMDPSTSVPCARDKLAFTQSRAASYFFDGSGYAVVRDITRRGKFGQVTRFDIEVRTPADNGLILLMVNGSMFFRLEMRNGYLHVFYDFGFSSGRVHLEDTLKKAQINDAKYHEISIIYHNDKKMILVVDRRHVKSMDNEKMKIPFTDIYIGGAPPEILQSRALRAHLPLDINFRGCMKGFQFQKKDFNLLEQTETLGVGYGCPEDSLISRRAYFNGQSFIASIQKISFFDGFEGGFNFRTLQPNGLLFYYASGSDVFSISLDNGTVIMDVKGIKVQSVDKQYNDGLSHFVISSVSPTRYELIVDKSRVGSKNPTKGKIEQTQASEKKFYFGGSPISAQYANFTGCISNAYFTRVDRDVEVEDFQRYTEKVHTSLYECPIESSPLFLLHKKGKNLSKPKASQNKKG
Experimental: Monoclonal antibodies against the LG4-5 modules of the G domain of LAMA4 were generated as described in Materials and Methods. The specific binding between the monoclonal antibodies and the LG4-5 modules of the G domain of LAMA4 was confirmed by assessing the monoclonal antibodies' ability to stain LAMA4-fragment-displaying human embryonic kidney 293 cells by flow cytometry. Fluorescent signal was assessed via flow cytometric analyses and plotted as mean fluorescence intensity (MFI) as shown in FIG. 1. A LG1-3-specific LAMA4 antibody was able to bind 293 cells displaying LG1-5 and LG1-3, but not LG4-5 of the LAMA4 protein. Conversely, clones 6C12, 13G10, and 15F7 were able to specifically bind 293 cells displaying LG1-5 and LG4-5, but not LG1-3.
Human LAMA4 G-domains 1-5 and variants were cloned into pDisplay expression construct (Life Technologies) and transiently transfected into 293 cells using standard procedures. Anti-LAMA4 antibodies were incubated with cells for 30 min at 4° C. and followed by anti-mouse-650 for 30 minutes at 4° C. Cells were analyzed for anti-laminin binding by flow cytometry using standard procedures.

[5] = biological target: laminin 411 (LAMA4 in complex with gamma1 and beta1 chains); test: cell-based or functional assay

Binder	Kd [1] [nM]	koff [1] [s⁻¹]	kon [1] [M⁻¹ s⁻¹]	Kd [2] [nM]	koff [2] [s⁻¹]	kon [2] [M⁻¹ s⁻¹]	inhibition of LAMA4-mediated WM-266-4 human melanoma cell adhesion (antibody at 20 ug/ml) [3] [%]	binding result [4]	inhibition of laminin-411-induced pAkt activation (pAkt/Akt ratio by immunoblot, WM266.4 cells; 20 ug/ml 15F7, 10 ug/ml laminin 411) [5] [%]
B1	2.38	0.00111	469000	3.11	0.00102	328000	≥ 35	no binding	
B2	0.627	0.000658	1.05e+06	0.684	0.000781	1.14e+06	≥ 35	no binding	~50
B3	11.9	0.00449	378000	24.4	0.0074	302000	≥ 35	no binding	
